Measured values reported in patent US20110268748A1 (UNIVERSITY OF ROCHESTER, published 2011).

T1: VP16-NuIP (HSV VP16 activation domain fused to full-length NuIP) (mouse, UniProt Q8BPQ7 1-1093)
T1 construct: also called pVP16NuIP
T1 sequence: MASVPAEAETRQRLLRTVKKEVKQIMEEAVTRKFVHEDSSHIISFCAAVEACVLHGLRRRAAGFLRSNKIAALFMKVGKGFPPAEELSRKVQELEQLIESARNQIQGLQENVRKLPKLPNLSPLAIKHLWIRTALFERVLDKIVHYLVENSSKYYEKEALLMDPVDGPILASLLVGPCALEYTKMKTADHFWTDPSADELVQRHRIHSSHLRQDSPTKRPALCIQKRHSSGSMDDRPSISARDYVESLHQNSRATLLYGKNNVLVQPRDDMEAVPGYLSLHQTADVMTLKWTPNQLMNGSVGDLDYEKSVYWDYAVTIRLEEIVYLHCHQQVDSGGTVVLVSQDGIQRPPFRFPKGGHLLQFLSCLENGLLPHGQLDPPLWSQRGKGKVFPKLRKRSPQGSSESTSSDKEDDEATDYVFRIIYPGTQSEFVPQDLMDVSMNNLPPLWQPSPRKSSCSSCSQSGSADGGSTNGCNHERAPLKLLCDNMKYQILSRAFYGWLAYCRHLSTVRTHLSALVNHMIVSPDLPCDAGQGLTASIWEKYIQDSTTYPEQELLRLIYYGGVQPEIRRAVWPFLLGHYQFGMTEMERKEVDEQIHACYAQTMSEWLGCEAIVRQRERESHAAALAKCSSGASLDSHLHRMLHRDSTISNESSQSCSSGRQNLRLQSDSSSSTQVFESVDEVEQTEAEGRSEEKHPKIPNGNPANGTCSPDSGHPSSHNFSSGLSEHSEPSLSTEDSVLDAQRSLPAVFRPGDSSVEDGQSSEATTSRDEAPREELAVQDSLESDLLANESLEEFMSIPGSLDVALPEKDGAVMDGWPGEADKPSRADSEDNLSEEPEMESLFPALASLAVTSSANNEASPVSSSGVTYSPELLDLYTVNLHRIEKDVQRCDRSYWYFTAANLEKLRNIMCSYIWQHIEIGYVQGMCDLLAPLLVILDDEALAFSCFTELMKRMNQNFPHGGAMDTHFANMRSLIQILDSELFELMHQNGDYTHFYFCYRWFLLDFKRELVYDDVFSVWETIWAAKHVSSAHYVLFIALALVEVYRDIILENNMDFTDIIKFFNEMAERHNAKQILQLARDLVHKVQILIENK

T2: pPC86-RXR (Gal4 activation domain fused to full-length human RXRα) (human, UniProt P19793 1-462)
T2 construct: also called pPC89RXR
T2 sequence (looked up): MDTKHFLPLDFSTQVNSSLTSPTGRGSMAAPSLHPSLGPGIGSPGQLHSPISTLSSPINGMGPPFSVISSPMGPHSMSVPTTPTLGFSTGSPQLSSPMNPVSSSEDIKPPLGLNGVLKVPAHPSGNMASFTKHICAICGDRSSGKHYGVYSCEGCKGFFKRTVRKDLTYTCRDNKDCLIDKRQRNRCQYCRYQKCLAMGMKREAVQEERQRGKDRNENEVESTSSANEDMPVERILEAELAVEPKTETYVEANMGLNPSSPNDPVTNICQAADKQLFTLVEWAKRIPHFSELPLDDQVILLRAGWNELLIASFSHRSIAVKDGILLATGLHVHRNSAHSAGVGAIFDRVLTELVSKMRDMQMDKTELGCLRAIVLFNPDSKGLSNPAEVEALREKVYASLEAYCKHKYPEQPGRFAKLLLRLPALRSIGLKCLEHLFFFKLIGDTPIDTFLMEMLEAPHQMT


How the values were obtained:
[1] = molecular target: T3, Gal4NLBD589A (Gal4 DNA-binding domain fused to the Nurr1 ligand binding domain with alanine for aspartic acid … (UniProt P04386 1-147)); experiment: yeast two-hybrid, empty prey vector control, growth on -Leu/-Trp/-His (X-gal staining: White)
T3 construct: also called pPC97-NLBD589A; pPC97NLBD589A

[2] = molecular target: T1, VP16-NuIP (HSV VP16 activation domain …); experiment: mammalian two-hybrid, luciferase reporter, MN9D cells
[3] = molecular target: T2, pPC86-RXR (Gal4 activation domain fused …); experiment: yeast two-hybrid, growth on -Leu/-Trp/-His (X-gal staining: White)

Binder | binding result [1] | binding result [2] | binding result [3]
Gal4 activation domain alone (empty pPC86 vector) (other, UniProt P04386 768-881, looked up, Empty prey vector control in yeast two-hybrid; also called pPC89) ANFNQSGNIADSSLSFTFTNSSNGPNLITTQTNSQALSQPIASSNVHDNFMNNEITASKIDDGNNSKPLSPGWTDQTAYNAFGITTGMFNTTTMDDVYNYLFDDEDTPPNPKKE | no binding | – | –
Gal4NLBDΔ583 (Gal4 DNA-binding domain fused to the Nurr1 ligand binding domain with the AF2 domain deleted) (other, Used under the same name as yeast bait (pPC97) and in the mammalian two-hybrid assay in MN9D cells; also called Gal4NLDBA583; Gal4NLBDp583) DPSPPSPPVSLISALVRAHVDSNPAMTSLDYSRFQANPDYQMSGDDTQHIQQFYDLLTGSMEIIRGWAEKIPGFADLPKADQDLLFESAFLELFVLRLAYRSNPVEGKLIFCNGVVLHRLQCVRGFGEWIDSIVEFSSNLQNMNIDISAFSCIAALAMVTERHGLKEPKRVEELQNKIVNCLKDHVTFNNGGLNRPNYLSKLLGKLPELRTLCTQGLQRIFYLKLEDLVP | – | binds | no binding
